# Results reported in the nanobody polyreactivity screen of Harvey et al. (2022).
# Experiment: yeast display, Sf9 membrane polyspecificity reagent, FACS + sequencing; frameworks hold sequencing errors
# Procedure, shortened: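 Genes from sorted yeast were amplified by colony PCR, read by MiSeq 2 × 250 sequencing and filtered on CDR length. These cells carried a synthetic nanobody library in Saccharomyces cerevisiae BJ5465 and were sorted by FACS into low and high (top ~1%) gates on anti-HA and streptavidin fluorescence. Polyreactivity is labelled according to the gate of origin.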
row,Sequence,polyreactivity (PSR sort gate)
1,QVQLVESGGGLVQAGGSLRLSCAASGSIFIYYAMGWYRQPPGKERELVAAISYSDGDTYYADSVKGRFTISRDNAKNTVYLQMNSLKPEDTAVYYCAAEVTLSYDVGWEDYWGQGTQVTVSS,high polyreactivity
2,QVQLVESGGGLVQAGGSLRLSCAASGRTFRYYAMGWYRQAPGKERELVAAISSGGSTNYADSVKGRFTISRDNAKITVYLQMNSLKPEDTAVYYCAALWSGNKFNYWGQGTQVTVSS,low polyreactivity
3,QVQLVESGGGLVQAGGSLRLSCAASGSIFASNAMGWYRQAPGKERELVAAITTSGDSTYYADSVKGRFTISRDHAKTTVYFQMNSLKPEDTAVYYCATDKGWGLMDSWGQGTQVTVSS,low polyreactivity
4,QVQLVESGGGLVQAGGSLRLSCAASGSIFFAYDMGWYRQAPGKERELVAAINFDGTSTYYADSVKGRFTISRDNAKNTVYLQMNTLKPEDTAVYYCNKRVSPTYKGQYVYWGQGTQVTVSS,low polyreactivity
5,QVQLVESGGGLVQAGGSLRLSCAASGRTSVYNAMGWYRQAPGKERELVAAITYGGRTYYADSVKGRFTISRDNAKNTVYLQMNSLKPEDTAVYYCAAPFHPAYVGYDYWGQGTQVTVSS,low polyreactivity
6,QVQLVESGGGLVQAGGSLRLSCAASGRTFYGYAMGWYRQAPGKERELVAAITQRSGSTYYADSVKGRFTISRDNAKNTVYLQMNSLKPEDTAVYYYNADKSQRVRRGDYWGQGTQVTVSS,high polyreactivity
7,QVQLVESGGGLVQSGGSLRLSCAASGSTFNGYAMGWYRQAPGKERELVAGITGSGGSTYYADSVKGRFTISRDNAKNTVYLQMNSLKPEDTAVYYCKAVHWGGSYWGLDYWGQGTQVTVSS,low polyreactivity
8,QFQLVESGGGLVQAGGSLRLSCAASGRIFYGYAMVWYRQAPGKERDLVAAISWRGGRTYYADSVKGRFTISRDNAKNTVYLQMNSLKPEDTAVYYCNKVFPPQGQLRNMYYWGQGTQVTVSS,high polyreactivity
9,QVQLVESGGGLVQAGGSLRLSCAASGQTFYYYAMGWYRQAPGKERELVAAINSSGGITFYADSVKGRFTISRDNAKNTVYLQMNSLKPEDTAVYYCAAGGRSKRYVYWGQGTQVTVSS,low polyreactivity
10,QVQLVESRGGLVQAGGSLRLSCAASGLTFRYYAMGWYRQAPGKERELVAAITASVGSTYYADSVKGRFTISRDNAKNTVYLQMNSLKPEDTAVYYCAADSEQDNLRYYRWVWYYYWGQGTQVTVSS,low polyreactivity
11,QVQLVESGGGLVQAGGSLRLSCAASGFIFRGNAMGWYRQAPGKERELVAAISKRGGSTNYADSVKGRFTISRDNAKNTVYLQMNSLKPEDTAVYYCNAEGIYRQPRGYVYRYDYWGQGTQVTVSS,high polyreactivity
12,QVQLVESVGGLVQAGGSLRLSCAASGFTFFHYAMGWYRQAPGKERELVAAINTRGSRTYYADSVKGRFTISRDNAKNTVYLQMNSLKPEDTAVYYCAADSVQVYAWQYYYWGQGTQVTVSS,high polyreactivity
13,HVQLQESGGGLVQACGSLRLSCAASGTIFKVVDMGLYRQSPAKEREFVATIGEGGNTYYADSVKGRFTISRDNAKNTVYLQMNSLKPEDTAVYFYEVVMGTSYRYTYWGQGTHVTVSS,low polyreactivity
14,QVQLVESGGGLVQAGGSLRLSCAASGRIFGPYTMGWYRQAPGKERELVATISYSGSTTYYADSVKWRFTISRDNAKNTVYLQMNSLKPEDTAVYYCNAQYYVFITFDYWGQGTQGTVSS,high polyreactivity
15,QVQLVESGGGLVQAGGSLRLSCAASGSTIEPYAMGWYRQAPGKEREFVAVITLSGGTTYYADSVKGRFTISRDNAKNTVYLQMHSLKPEDTAVYYCNAQYRKARVDEYYYWGQGTQVTVSS,high polyreactivity
16,QVQLVESGGGLVQAGGSLSLSCAASGFIFRGNGMGWYRQAPGKERELVAAIDSTDSTNYADSVKGRFTISRDNAKNTVYLQMNSLKPEDTAVYYCAAGVSWYGPYDYLWFYAFDYWGQGTQVTVSS,low polyreactivity
